{"source": "patent US20240239881A1", "about": "(Innovent, published 2024)", "binders": {"B1": {"name": "humanized antibody hz81H10.4 (antibody, human IgG1, kappa, V domains shown)", "VH": "EVQLVESGGGLVKPGGSLRLSCAASGFTFSNYWMNWVRQAPGKGLEWVAEIRLKSNNYATHYAESVKGRFTISRDVSKNTVYLQMNSLKTEDTAVYYCTDTAPFAYWGQGTLVTVSS", "VL": "DIQMTQSPSSLSASVGDRVTITCKASQDVGTDVAWYQQKPGKAPKLLIYWASTRHTGVPSRFSGSGSGTDFTLTISSLQPEDFATYYCQQYSSYPLTFGGGTKVEIKR", "notes": "also called IBI335"}}, "key": {"[1]": {"target": "T1, human Ang2 (human, UniProt O15123 19-496, limits assumed)", "T1 construct": "also called hAng2; h Ang2", "T1 sequence": "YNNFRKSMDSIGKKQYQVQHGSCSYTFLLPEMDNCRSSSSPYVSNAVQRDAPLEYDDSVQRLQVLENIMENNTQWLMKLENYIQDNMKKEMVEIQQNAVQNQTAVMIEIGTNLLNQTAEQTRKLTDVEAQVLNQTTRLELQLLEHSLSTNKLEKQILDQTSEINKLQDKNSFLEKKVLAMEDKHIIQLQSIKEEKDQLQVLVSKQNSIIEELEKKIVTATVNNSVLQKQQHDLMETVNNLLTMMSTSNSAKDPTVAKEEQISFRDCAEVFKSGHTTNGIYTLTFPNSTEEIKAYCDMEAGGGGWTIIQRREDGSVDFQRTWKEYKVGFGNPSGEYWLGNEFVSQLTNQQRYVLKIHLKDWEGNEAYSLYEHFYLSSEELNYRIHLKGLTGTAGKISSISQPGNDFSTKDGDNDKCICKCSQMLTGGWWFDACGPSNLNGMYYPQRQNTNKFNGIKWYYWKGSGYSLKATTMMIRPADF", "experiment": "ForteBio BLI, antibody on AHQ sensor, 100 nM antigen, 1:1 model", "procedure": "The equilibrium dissociation constants (KD) of the above exemplary antibodies of the present invention binding to human Ang2 (h Ang2), cynomolgus monkey Ang2 (cAng2), murine Ang2 (mAng2), and human Ang1 (hAng1) were determined using the biological optical interferometry (ForteBio) assay.\nThe ForteBio affinity assay was performed according to the existing method (Estep, P et al., High throughput solution-based measurement of antibody-antigen affinity and epitope binning. MAbs, 2013.5 (2): p. 270-8). Briefly, the sensor was equilibrated in the assay buffer off-line for 30 min, followed by on-line detection for 60 s to establish the baseline. Then the purified antibodies obtained as described above were loaded on-line onto an AHQ sensor (ForteBio) for ForteBio affinity assay. The sensors with loaded antibodies were exposed to 100 nM of hAng2, cAng2, mAng2, and hAng1 antigens for 5 min, and then were transferred into the assay buffer for dissociation for 5 min to determine the dissociation rate. Kinetic analysis was performed using a 1:1 binding model."}, "[2]": {"target": "T2, hAng2-Fc protein (Sino Biological, Cat No.: 10691-H02H) (human, UniProt O15123 19-496)", "T2 construct": "Bought fusion; also called human Ang2-Fc; human Ang2-hFc; not shown: human Fc of the bought fusion protein", "T2 sequence": "T1 sequence", "experiment": "blocking assay by flow cytometry: antibody titrated against hAng2-Fc (2 ug/ml final); blocked binding to human Tie2 on 293-tie2 cells; anti-human IgG-PE, MFI", "procedure": "The ability of hz81H10.4 and the control antibody Nesvacumab to block the binding of human Ang2-hFc to Tie2 on the cell surface was detected by flow cytometry (FACS).\nThe antigen hAng2-Fc protein (Sino Biological, Cat No.: 10691-H02H) was diluted to 4 μg/ml, and added to the plate wells at 50 μl/well. Antibodies (hz81H10.4 and control antibody Nesvacumab) prepared as described above were diluted at 2-fold with a total of 12 dilution points starting from the highest concentration of 800 nM, and added to the plate wells at 50 μl/well, and incubated in PBS on ice for 30 min, where the final concentration of the antigen was 2 μg/ml and the highest concentration of antibody was 400 nM. […] The cells were centrifuged at 300 g for 5 min, and after the supernatant was discarded, the cells were resuspended in the antigen-antibody mixture. The cells were incubated on ice for 30 min, and added with PBS at 100 μl/well, centrifuged at 300 g for 5 min, and washed with PBS once. A 100 μl of goat anti-human IgG-PE (Southern Biotech, Cat. No. 2040-09) diluted at 1:200 was added to each well and placed in an ice bath for 20 min. PBS was added at 100 μl/well, and the cells were centrifuged at 300 g for 5 min, and washed once with PBS. The cells were resuspended in 100 μl PBS and the fluorescence signals of the cells were detected by a flow cytometer (BD Biosciences). […]"}, "[3]": {"target": "T1, human Ang2", "experiment": "SPR, Biacore T200, mean of three experiments", "procedure": "(§1) The antibody was diluted to 1 μg/mL and was captured onto channel 2 for 30 s, and channel 1 was the blank control channel. The gradient-diluted Human ANG2, Rhesus ANG2, Rabbit ANG2, Rat ANG2 and Mouse ANG2 were sequentially injected into channels 1 and 2 of the chip, from low to high concentrations (0-32 nM), at a flow rate of 30 μL/min, with one concentration per cycle, and with 180 s association time and 1200 s dissociation time at 25° C. Finally, the chip was regenerated using Glycine pH 1.5 at 30 μL/min for 30 s. The affinity assay was repeated three times."}, "[4]": {"target": "T3, Rhesus ANG2 (rhesus, UniProt F6QXG0 19-496)", "T3 sequence": "T1 sequence with I279V, F284L, I291V, G410A, A468G", "experiment": "SPR, Biacore T200, mean of three experiments", "procedure": "as §1"}, "[5]": {"target": "T2, hAng2-Fc protein (Sino Biological, Cat …)", "experiment": "cell-based or functional assay"}}, "note": "Residue numbers refer to the chain shown, from its start.", "data": [{"binder": "B1", "values": [{"measurement": "Kd", "setting": "[1]", "result": 1.25, "unit": "nM"}, {"measurement": "IC50", "setting": "[2]", "result": 2.3, "unit": "nM"}, {"measurement": "Kd", "setting": "[3]", "result": 0.0457, "unit": "nM"}, {"measurement": "Kd", "setting": "[4]", "result": 0.146, "unit": "nM"}, {"measurement": "IC50 (read off the curve)", "setting": "[5]", "result": "~5", "unit": "nM"}]}]}
